In the supplement of paper PMC12042874:
± gives the uncertainty stated by the source.

Assay: amyloid nucleation score (Sup35N fusion, yeast selection) (log enrichment); library NNK3; higher = more nucleation; inactive = no reads after selection
In short: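 Sup35N was fused to peptides of 20 random codons and expressed in psi-negative yeast, which were induced with 100 μM copper sulfate for 24 hours and then grown on medium lacking adenine and uracil for 7 days at 30°C. Plasmid inserts from input and output were sequenced on Illumina. The nucleation score is the DiMSum log enrichment of output over input reads, centred on the mode score of non-aggregating sequences. Sequences with under 100 input reads were left out, and random libraries had three technical output replicates.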

Substance	amyloid nucleation score
DLSKTGTSNNLLFTERISDI	inactive
YVGFVARVVRDYNGYQRDTC	inactive
CCSGLAMAFRFYASYSGAIY	inactive
LNNSEWSLS	inactive
YVNVYGSQMVYSKSQGHFPD	inactive
PTAFCNSSQYV	inactive
NLNFDWTPVPSFSYHAPSKF	inactive
YSMSILFRYHLNGVRYGMTG	inactive
WGMSRLFVYFPVILLMISLT	inactive
TTDCIESVRDG	-0.659 ± 1.4
ECFEVEQGILDAHSNCWGNI	0.778 ± 0.2
HGPRLLTSKVRFWRKTLRST	inactive
GHNVQGNRLMITYDLNIVGS	inactive
EFSYISVCRLQLLMHTKIWD	1.43 ± 0.14
LSIYYEFFLSETNFCYMLRC	0.766 ± 0.15
GARLAVW	inactive
LHPSRLDGT	0.411 ± 0.25
SHLFREIDITWSCSLVISCN	inactive
TSKREWLMRNYAHCTNFDGR	inactive
AHRFITMSLERVSTYRGLYV	inactive
LDNVKDVRYWIVCTQWWNRV	inactive
VNFFGR	inactive
QSSCGIMQPYRQWMPYSTYG	inactive

Substance	amyloid nucleation score
IGIIFSKVWSPPDDMHT	1.28 ± 0.095
KFNGCR	inactive
ECSVSMCEKGITYRSVVERG	inactive
ALIHFGIEVKRYICWMQNLV	inactive
ISMSCNYSW	inactive
HFGYSGFDYYICTRY	0.049 ± 0.27
FHTFSLTSINMVLLSFVVRF	inactive
LLHVVFNTFLYRLEPEYTSK	inactive
VSNMCVGMKLCFSDNHYREL	1.78 ± 0.067
QSKSYFTL	inactive
QFMNKIIMCLGSF	-0.263 ± 0.58
CHVLWGCCIRSQVCCSAYNV	2.06 ± 0.073
YQNIDYMKGYKVISKD	inactive
CCGGFIVMQQAGGSPIDGQG	0.29 ± 0.2
RIPKDEYTNPGRA	inactive
RTYMVII	inactive
LPGNVFDVPLFNLDVYWVTR	inactive
SCLFRILMQLSTTMNSSVFK	inactive
SFGLWNLRTYTAVIASSWEL	inactive
VMKSYDWEDWSSDPFIFRYV	inactive
REEAVWQADFVYLTKSAILN	inactive
FNKLEVRNRQEWLSGRFWDH	-0.091 ± 0.36
DVNFWSLYKFCTRVDFGLSY	inactive

Substance	amyloid nucleation score
MMVMWD	inactive
FWSFRPGHITLSIGHTRIAG	inactive
AYKAAYAVWCVIINGGLF	inactive
IFYVCRIIWCTERQVGKLGL	inactive
LLTWMIG	0.714 ± 0.29
GCFIGDVRMSMSCSKFLCIE	0.381 ± 0.15
TFFLYVKIRVALNIRVPGVR	inactive
GVSMERLKFDIVL	inactive
FLMDNMVSGIVFFTSSVIRG	inactive
RACARVLLEVCFLFEFSMST	inactive
VNKVKILCYGHHFKGMWDLA	inactive
THLIIHCLCLFERVFITHVA	inactive
MRMNVTIRFVMFNTGLRMYG	inactive
SVWFGEIRNMGLIEEENRDW	inactive
VWCTSVVT	-0.149 ± 0.28
MEGFSMIIRDAWKFTCVVEW	inactive
LLVMSQVKYRHMSAAPA	inactive
SWSRYNDC	inactive
AFAMRMTCSGLVNICHFAWL	0.287 ± 0.38
NIRKPDMYLITVCWESSQAL	inactive
VAVDIRALFRGRWVMNLARR	-0.75 ± 1.5
TGLVMNKLHLMCDMYGIISL	inactive
MGWALIGSQSPYVCHNMFVR	inactive

Substance	amyloid nucleation score
SNMNV	inactive
WVPKFYRLGSDTWSSVSLDV	inactive
SVYQDCTGGNIPQFGSLAD	inactive
KISNFLTSSLCMYGSLRWRV	0.548 ± 0.2
YQRGVRFRSHWMRSGKWDHF	inactive
PQMQAISSHVCLWG	inactive
VEEGFGLMSKIAHSIGLREC	-0.278 ± 1.4
YFMIDRPALRLVDKKCGSRS	inactive
FVTRHLNFCM	inactive
VTNSFSIFSGIIVHSTSLMV	0.032 ± 0.6
VIDRNWRRLHSWVGLVGRAR	inactive
MTAGEIDRLLYVS	inactive
PCYCSFVSRSYYCKDYVRNS	inactive
VVYYWSVRITAVQHYWHLYT	inactive
YRDRIVNHIVGLLGIGS	1.16 ± 0.11
QWVSLGLVGVGQ	inactive
VRYPRSLVCYWYGRNHAVWA	inactive
RRMPLWEVGFSQASLTRQ	inactive
CSYRCYSLGCNMQIV	inactive
SCFGECCI	inactive
DSCKPCQKPTAIHVYMVEFP	inactive
VIITNEMVDRVDGDTTSYMH	-0.003 ± 1
GTLYAKSVRNKGSS	inactive

Substance	amyloid nucleation score
YVYGKNGARGDSIREMGPSE	inactive
FMTIIKRWDVWNFCRSSGAV	inactive
SASRKNNQDVCGNCAVVGEF	inactive
WVFLNRAQQHSNVLPSQGLV	inactive
EHNNQLGIWSTYPCSNLSGH	inactive
SHCYTRVLCTLVVFT	inactive
PESFKGTQCVKFFYNCLLFK	1.2 ± 0.086
LVSLWLDRD	inactive
PNICGLGYYRLWSMLGITCW	inactive
YRILINFLSWYLCIYYASCA	inactive
FTNFDNFSFYASWLCG	inactive
YKYVTNDLSRVILRPVSARY	inactive
YAFLLYY	inactive
LTGLEMLYYTCFNVCTRKCV	inactive
CKVHECHVPAG	inactive
GINDLISSALNNSRRLRTVG	inactive
TFRLAEQQSEFSDLK	-0.335 ± 0.71
GKIEDYCLVRESQAIPSLLQ	inactive
VWETATNFSISMLWRQAFRM	inactive
FIVYLSCPWVRRFIVVMEFM	inactive
SSVKGTYIFIYDVVMLR	inactive
SNIDCLFNNVLCWIVFEWC	1.07 ± 0.11
IMKRFVMFLCFSISIWMFVV	inactive

Substance	amyloid nucleation score
ICRLRPLSWMWFAAYSCLFN	inactive
NCRRRKCVTGGGRS	1.16 ± 0.17
FNKVRWSRVTGTFWKVLIRV	inactive
CGCGWVLWPYKYRSDWLGGK	inactive
HIWGIRKCDPPLTVVMFQSL	inactive
LYMVSYG	inactive
RWSRGMVSNCRENATWYDAA	inactive
SQRELYH	inactive
NMILFISCEIPGRGVFGRCC	1.13 ± 0.11
FHTLLLCSDVSSARWFADWF	inactive
CMHGRGMWMNIACAFSCRQF	0.063 ± 0.69
SVYDCQLVACHLMRDHKK	inactive
NPRVYNMIQPAYVNWSMDVT	inactive
GRSRLQQVIHLAFTIKSVNG	inactive
LAPFV	inactive
LHRLRKWRRLY	inactive
VDKWSCVDNFFSY	inactive
GRHRFYSAIKQVQR	inactive
SSRINWSASLNSLTVTVD	inactive
LFSLIVNTRLETLEFKGQIP	1.02 ± 0.11
MNFSEH	inactive
TTFATSCNMWYHRSILHS	inactive
SVRGIKVNLWRKEDLYASTQ	inactive

Substance	amyloid nucleation score
SLLDGTYYNTI	inactive
VNTLPQLLSLYSDLLRGESL	-0.218 ± 1.4
YKICSLACVKHGREPV	inactive
HWYGTMLKLFNVLKPMGPKI	inactive
YKPLFVCSRHLMNRELCTGY	inactive
CVFRYLVHHERMSYILNAGC	inactive
ASVACLAFP	inactive
SVVLRYVLRYNRSACESRRR	0.441 ± 0.21
FIRMVGRLKKWRVS	inactive
FRIIQVVRYDMMGTRLDMYQ	0.938 ± 0.19
IYSVYWDGMEPSIRTGWI	inactive
FFSCFCLLMRY	inactive
PVPLAMYFYVALIYFDWW	inactive
RCTVSTSGSGGFCPVPRSGM	inactive
PTSFYPVQRPPRFCAGHFRS	inactive
LEDSLPQIPTQIVGWWFLKM	inactive
CNVFWVPTVRLIFKMYKVSR	0.417 ± 0.36
NGNFSVRFSVKS	inactive
VSGMDCSGGFASVESMASYR	inactive
